Laboratory results taken from the supplement of paper PMC11246515.
± gives the standard deviation of the averaged measurements.

Assay: total protein half-life in vivo (active degradation + dilution); higher = more stable protein
[1] = E. coli NCM3722 delta-clpP delta-lon delta-hslV, growth: N-lim chemostat, doubling time 6 h
[2] = E. coli NCM3722 delta-clpP, growth: N-lim chemostat, doubling time 6 h
[3] = E. coli NCM3722 delta-hslV, growth: N-lim chemostat, doubling time 6 h
[4] = E. coli NCM3722 delta-smpB, growth: N-lim chemostat, doubling time 6 h
[5] = wild type E. coli NCM3722, growth: C-lim chemostat, doubling time 3 h
[6] = wild type E. coli NCM3722, growth: C-lim chemostat, doubling time 6 h
[7] = wild type E. coli NCM3722, growth: C-lim chemostat, doubling time 12 h
[8] = wild type E. coli NCM3722, growth: N-lim chemostat, doubling time 6 h
[9] = wild type E. coli NCM3722, growth: N-lim chemostat, doubling time 12 h
[10] = wild type E. coli NCM3722, growth: P-lim chemostat, doubling time 6 h
[11] = wild type E. coli NCM3722, growth: P-lim chemostat, doubling time 12 h
[12] = E. coli NCM3722 delta-lon, growth: N-lim chemostat, doubling time 6 h

Row | Sequence | total protein half-life in vivo [1] | total protein half-life in vivo [2] | total protein half-life in vivo [3] | total protein half-life in vivo [4] | total protein half-life in vivo [5] | total protein half-life in vivo [6] | total protein half-life in vivo [7] | total protein half-life in vivo [8] | total protein half-life in vivo [9] | total protein half-life in vivo [10] | total protein half-life in vivo [11] | total protein half-life in vivo [12]
1 | MGNNLLSAKATLPVYDLNNLAPRIVHLGFGAFHRAHQGVYADILATEHFSDWGYYEVNLIGGEQQIADLQQQDNLYTVAEMSADVWTARVVGVVKKALHVQIDGLETVLAAMCEPQIAIVSLTITEKGYFHSPATGQLMLDHPMVAADVQNPHQPKTATGVIVEALARRKAAGLPAFTVMSCDNMPENGHVMRDVVTSYAQAVDVKLAQWIEDNVTFPSTMVDRIVPAVTEDTLAKIEQLTGVRDPAGVACEPFRQWVIEDNFVAGRPEWEKAGAELVSDVLPYEEMKLRMLNGSHSFLAYLGYLAGYQHINDCMEDEHYRYAAYGLMLQEQAPTLKVQGVDLQDYANRLIARYSNPALRHRTWQIAMDGSQKLPQRMLDSVRWHLAHDSKFDLLALGVAGWMRYVGGVDEQGNPIEISDPLLPVIQKAVQSSAEGKARVQSLLAIKAIFGDDLPDNSLFTARVTETYLSLLAHGAKATVAKYSVK | 5.14 ± 0.34 h | 3.3 ± 0.17 h | 3.4445 ± 0.0012 h | 2.77 ± 0.18 h | 1.95 ± 0.0085 h | 4.22 h | 6.21 ± 3.1 h | 3.63 ± 0.19 h | 5.47 ± 0.58 h | 3.61 ± 0.7 h | 7.36 ± 0.28 h | –
2 | MVIKAQSPAGFAEEYIIESIWNNRFPPGTILPAERELSELIGVTRTTLREVLQRLARDGWLTIQHGKPTKVNNFWETSGLNILETLARLDHESVPQLIDNLLSVRTNISTIFIRTAFRQHPDKAQEVLATANEVADHADAFAELDYNIFRGLAFASGNPIYGLILNGMKGLYTRIGRHYFANPEARSLALGFYHKLSALCSEGAHDQVYETVRRYGHESGEIWHRMQKNLPGDLAIQGR [P0A8V6] | 5.22 ± 0.34 h | 5.72 ± 0.28 h | 5.12 ± 0.56 h | 5.01 ± 0.18 h | 2.88 ± 0.091 h | 6.27 ± 0.67 h | 9.92 ± 0.94 h | 5.93 ± 0.23 h | 10.3 ± 0.15 h | 4.58 ± 0.83 h | 8.62 ± 1.3 h | 6.05 ± 0.6 h
3 | MENNRNFPARQFHSLTFFAGLCIGITPVAQALAAEGQTNADDTLVVEASTPSLYAPQQSADPKFSRPVADTTRTMTVISEQVIKDQGATNLTDALKNVPGVGAFFAGENGNSTTGDAIYMRGADTSNSIYIDGIRDIGSVSRDTFNTEQVEVIKGPSGTDYGRSAPTGSINMISKQPRNDSGIDASASIGSAWFRRGTLDVNQVIGDTTAVRLNVMGEKTHDAGRDKVKNERYGVAPSVAFGLGTANRLYLNYLHVTQHNTPDGGIPTIGLPGYSAPSAGTAALNHSGKVDTHNFYGTDSDYDDSTTDTATMRFEHDINDNTTIRNTTRWSRVKQDYLMTAIMGGASNITQPTSDVNSWTWSRTANTKDVSNKILTNQTNLTSTFYTGSIGHDVSTGVEFTRETQTNYGVNPVTLPAVNIYHPDSSIHPGGLTRNGANANGQTDTFAIYAFDTLQITRDFELNGGIRLDNYHTEYDSATACGGSGRGAITCPTGVAKGSPVTTVDTAKSGNLMNWKAGALYHLTENGNVYINYAVSQQPPGGNNFALAQSGSGNSANRTDFKPQKANTSEIGTKWQVLDKRLLLTAALFRTDIENEVEQNDDGTYSQYGKKRVEGYEISVAGNITPAWQVIGGYTQQKATIKNGKDVAQDGSSSLPYTPEHAFTLWSQYQATDDISVGAGARYIGSMHKGSDGAVGTPAFTEGYWVADAKLGYRVNRNLDFQLNVYNLFDTDYVASINKSGYRYHPGEPRTFLLTANMHF | – | – | – | – | 3.14 ± 0.17 h | – | > 16 h | > 8 h | > 16 h | – | – | –
4 | MIAITGATGQLGHYVIESLMKTVPASQIVAIVRNPAKAQALAAQGITVRQADYGDEAALTSALQGVEKLLLISSSEVGQRAPQHRNVINAAKAAGVKFIAYTSLLHADTSPLGLADEHIETEKMLADSGIVYTLLRNGWYSENYLASAPAALEHGVFIGAAGDGKIASATRADYAAAAARVISEAGHEGKVYELAGDSAWTLTQLAAELTKQSGKQVTYQNLSEADFAAALKSVGLPDGLADMLADSDVGASKGGLFDDSKTLSKLIGHPTTTLAESVSHLFNVNN | 5.42 ± 0.13 h | 4.93 ± 0.067 h | 4.99 ± 0.61 h | 4.569 ± 0.035 h | 3.2 ± 0.18 h | 5.84 ± 0.31 h | 8.9 ± 2 h | 5.15 ± 0.28 h | 8.33 h | 6.72 ± 0.65 h | 13.1 ± 1.4 h | 5.3 ± 0.25 h
5 | MFKKILFPLVALFMLAGCAKPPTTIEVSPTITLPQQDPSLMGVTVSINGADQRTDQALAKVTRDNQIVTLTASRDLRFLLQEVLEKQMTARGYMVGPNGPVNLQIIVSQLYADVSQGNVRYNIATKADIAIIATAQNGNKMTKNYRASYNVEGAFQASNKNIADAVNSVLTDTIADMSQDTSIHEFIKQNAR [P0ADA5] | 6.32 ± 1.6 h | – | – | 5.86 ± 0.59 h | > 4 h | 7.64 ± 0.29 h | 12.6 ± 0.17 h | 6.36 ± 0.12 h | 13 ± 0.98 h | 6.254 ± 0.035 h | 14.94 ± 0.13 h | 6.15 ± 0.68 h
6 | MTLEWWFAYLLTSIILSLSPGSGAINTMTTSLNHGYRGAVASIAGLQTGLAIHIVLVGVGLGTLFSRSVIAFEVLKWAGAAYLIWLGIQQWRAAGAIDLKSLASTQSRRHLFQRAVFVNLTNPKSIVFLAALFPQFIMPQQPQLMQYIVLGVTTIVVDIIVMIGYATLAQRIALWIKGPKQMKALNKIFGSLFMLVGALLASARHA [P0AG34] | – | 2.02 h | 1.51 h | 1.73 ± 0.21 h | 0.913 h | 1.47 h | 2.28 h | 2.62 h | – | – | 3.7 h | –
7 | MLYLTKISNAGSEFTENEQKIADFLQANVSELQSVSSRQMAKQLGISQSSIVKFAQKLGAQGFTELRMALIGEYSASREKTNATALHLHSSITSDDSLEVIARKLNREKELALEQTCALLDYARLQKIIEVISKAPFIQITGLGGSALVGRDLSFKLMKIGYRVACEADTHVQATVSQALKKGDVQIAISYSGSKKEIVLCAEAARKQGATVIAITSLTDSPLRRLAHFTLDTVSGETEWRSSSMSTRTAQNSVTDLLFVGLVQLNDVESLKMIQRSSELTQRLK | 6.32 ± 0.32 h | 5.62 ± 0.76 h | 5.52 ± 0.44 h | 5.37 ± 0.52 h | 3.04 ± 0.11 h | 5.97 ± 0.46 h | 12.7 ± 3 h | 5.36 ± 0.48 h | – | 5.74 h | 12 ± 2 h | 5.93 ± 2.8 h
8 | MIGRLRGIIIEKQPPLVLIEVGGVGYEVHMPMTCFYELPEAGQEAIVFTHFVVREDAQLLYGFNNKQERTLFKELIKTNGVGPKLALAILSGMSAQQFVNAVEREEVGALVKLPGIGKKTAERLIVEMKDRFKGLHGDLFTPAADLVLTSPASPATDDAEQEAVAALVALGYKPQEASRMVSKIARPDASSETLIREALRAAL [P0A809] | 5.02 ± 0.64 h | 4.88 ± 0.9 h | 5.46 ± 0.47 h | 5.59 ± 0.069 h | 2.99 ± 0.28 h | 5.04 ± 0.43 h | 10.3 ± 3.1 h | 4.95 ± 0.26 h | 7.6 ± 0.43 h | 3.73 ± 0.86 h | 10.13 ± 0.068 h | 4.88 ± 0.49 h
